US12187807B2, “Antibody molecules to C5AR1 and uses thereof” (Visterra, Inc., priority 2020, dated 2025)

T1: C5aR1 (Homo sapiens, UniProt P21730)
T1 sequence (P21730 1-350): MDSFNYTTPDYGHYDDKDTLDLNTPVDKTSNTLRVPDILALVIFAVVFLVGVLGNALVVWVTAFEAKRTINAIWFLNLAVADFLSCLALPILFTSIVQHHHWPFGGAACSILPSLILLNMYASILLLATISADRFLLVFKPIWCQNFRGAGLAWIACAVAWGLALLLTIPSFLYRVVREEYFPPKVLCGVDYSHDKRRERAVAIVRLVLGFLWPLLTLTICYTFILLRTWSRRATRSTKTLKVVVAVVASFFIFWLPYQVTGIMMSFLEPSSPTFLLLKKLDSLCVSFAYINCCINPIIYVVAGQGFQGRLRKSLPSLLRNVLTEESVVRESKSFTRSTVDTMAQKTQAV

T2: biotinylated peptide representing the N-terminus of C5aR1 with tyrosine sulfation (Homo sapiens, UniProt P21730)
T2 construct: the N-terminus with tyrosine sulfation
T2 sequence (P21730 1-37): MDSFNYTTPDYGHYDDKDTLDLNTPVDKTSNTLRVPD


Assays:
C5aR1 = biological target: T1, C5aR1; experiment: GeneBLAzer reporter assay (C5aR1 mediated Gα signaling); format: cell-based; design: host or cells: vendor's C5aR1 GeneBLAzer reporter cell line; settings: for antagonism of C5aR1 compared to reference antibodies or to Avacopan: 10 nM of antibody, 10 nM C5a; for inhibition of C5aR1 signaling / activity in the GeneBLAzer assay: C5a dose response with varying concentrations of antibody; for inhibition of C5aR1 mediated Gα signaling in the presence of C5-alpha: U937 cells, increasing concentrations of C5-alpha, FIGS. 20A-20G
Procedure: In addition, a GeneBLAzer reporter assay was used, which mimics the calcium flux assay. The GeneBLAzer assay kit and C5aR1 cell line were commercially available from Thermo Fisher (Catalog #K1544). The assay was performed as recommend by the manufacturer. Briefly, antibodies or antagonists were incubated for 30 minutes at 37° C. C5a was then added to the cells and incubated at 37° C. for an additional 4-5 hours. Beta-lactamase substrate was then added and incubated for 2 hours at room temperature. Fluorescent measurements for each well with an excitation/emission of 409/460 (blue) and 409/530 (green) were measured. An increase in the blue to green ratio was proportional to C5aR1 activation and was used to calculate the percent of activation for the cells in each well.
Exemplary anti-C5aR1 antibodies generated as described in Example 1 were screened for antagonist activity against human C5aR1 using the GeneBLAzer assay, as described in Example 1. Briefly, cells were pre-incubated with 10 nM of antibody followed by addition of 10 nM C5a. The engineered induction of beta-lactamase expression by C5a-C5aR1 signaling was measured using the BLA substrate and calculating the ratio of blue and green fluorescence.

[1] = test system: C5aR1 mutants (N-terminus, ECL1, ECL2, ECL3); experiment: Alanine scanning / mutagenesis epitope mapping of C5aR1; format: binding, human
Description: FIG. 5A is a diagram showing the results of alanine scanning mutations of site I interaction with mab 583. The N-terminal amino acid sequence of C5aR1 is listed across the top of the figure. Glycosylation sites are indicated by rectangle boxes. The only natural glycosylation site is at position N5. The other sites were introduced by mutagenesis. Mutations that abolished clone 583 binding are circled. The sulfated tyrosines at positions 11 and 14 are marked with a star sign. FIG. 5B is a diagram showing results of alanine scanning mutations of site I interaction with mab 66. Mutations that abolished clone 66 binding are circled. The sulfated tyrosines at positions 11 and 14 are marked with a star sign.
Ala substitutions of T8 & D10 moderately reduces its affinity while Y11 & D15 abolishes mAb binding. […] N-glycosylation of at N17 or D17P also abolishes mAb binding. N5 glycan is tolerated but a tandem glycosylation (N5 & N17) is not tolerated. mAb core epitopes are T8-G12 but nature of AA present in D15-D18 influence its binding. […] The core epitope appears to be located near T8-G12, with additional contributions from D15-D18.
Clone 66 was previously characterized as a site I binder and its binding is dependent on tyrosine sulfation at positions 11Y and/or 14Y. […] It should be noted that the only the only non-human species to retain clone 66 binding was baboon, which is the only NHP that retains the DYGHY motif.
However, it was unknown if additional contacts were made with ECL1 or ECL3. […] The data is highlighted in FIG. 5C-5E.
The core epitope of clone 11 is from E180-P183; the core epitope of clone 329 is from E180-P184; and the core epitope of clone 336 is from R178-P183. […] The data for clones 11, 329, and 336 is highlighted in FIG. 5F.

[2] = biological target: T3, biotinylated peptide representing ECL2 of C5aR1 (Homo sapiens, UniProt P21730); experiment: Epitope mapping by biolayer interferometry, ECL2 peptide; format: binding; design: key: “+” indicates binding to the listed peptide; “−” indicates lack of binding to the listed peptide
T3 construct: cyclic ECL2 peptide spanning from residues R175 to C188
Procedure: (§1) The epitope mapping was undertaken, using biolayer interferometry, on a series of exemplary anti-C5aR1 antibodies generated as described in Example 1. Briefly, for each antibody, biotinylated peptides representing ECL2, the N-terminus with tyrosine sulfation, and the N-terminus without tyrosine sulfation, were immobilized in a streptavidin biosensor. Subsequently, the biosensor was exposed to 10 μg/mL of antibody to detect antibody binding to the immobilized peptide. The results of the epitope mapping study are shown in Table 4 (“+” indicates binding to the listed peptide; “−” indicates lack of binding to the listed peptide).

[3] = biological target: T2, biotinylated peptide representing the N-terminus of C5aR1 with tyrosine sulfation; experiment: Epitope mapping by biolayer interferometry, N-terminus with tyrosine sulfation; format: binding; design: key: “+” indicates binding to the listed peptide; “−” indicates lack of binding to the listed peptide; settings: 10 μg/mL of antibody, biotinylated peptide on streptavidin biosensor
Procedure: as §1

[4] = biolayer interferometry, 10 μg/mL of antibody, biotinylated peptide on streptavidin biosensor

| Molecule | antagonism of C5aR1 compared to reference antibodies or to Avacopan (C5aR1) | inhibition of C5aR1 signaling / activity in the GeneBLAzer assay (C5aR1) | inhibition of C5aR1 mediated Gα signaling in the presence of C5-alpha (C5aR1) | cross-reactivity to cyno and rhesus monkey [1] | requirement of tyrosine sulfation (Y11, Y14) for binding [1] | binding to C5aR1 mutant ([1]; G12A/T) | binding to C5aR1 mutant ([1]; G12E/D) | binding to C5aR1 mutant ([1]; mutations at D15) | binding to C5aR1 mutant ([1]; mutations at positions 13 and 14) | Binding to Cyclic ECL2 peptide [2, 4] | Binding to Sulfated N-terminal peptide [3] | non-human species that retains binding [1] | binding to C5aR1 mutant ([1]; Ala mutation of E180 & Y181) | binding to C5aR1 mutant ([1]; mutation of Y182, P183 & P184) | Binding to Cyclic ECL2 peptide ([2]; peptide spanning residues R175 to C188) |
| --- | --- | --- | --- | --- | --- | --- | --- | --- | --- | --- | --- | --- | --- | --- | --- |
| clone 583: anti-C5aR1 Site I antibody; VH SEQ ID NO: 536, VL SEQ ID NO: 595 (antibody, V domains shown) VH: EVQLVESGGGLVKPGGSLKLSCAASGFTFNAYAMSWVRQTPEKRLEWVASISTGGNTYCPDSVKDRFTVSRDNVRNILYLQMSSLRSEDTAMYYCTRGYQRFSGFAYWGQGTLVTVS VL: DVVMTQTPLSPPVSLGYQASISCRSSQSLVHSNGNTYLNWYLQKPGQSPKLLIYKVSNRLSGVPDRFSGSGSGTDFTLKISRVETEDLGVYFCSQSTHVPYTFGGGTKLEIK | improved | highly potent | inhibition of C5aR1 mediated Gα signaling | lack of cross-reactivity | tyrosine sulfation is not required | tolerated | abolish binding | abolish binding | tolerated | − | + |  |  |  |  |
| clone 66: anti-C5aR1 Site I antibody; VH SEQ ID NO: 483, VL SEQ ID NO: 543 (antibody, V domains shown) VH: QVQLQQSDAELVKPGASVKISCKASGYTFIDHAIHWVKQRPEQGLEWIGYISPGNGEIKYNEKFKAKATLTADKSSSAAYMQLNSLTSADSAVYFCKRALFYYTGKYQPMDYWGQGTTVTDSS VL: DIVMTQSQKFMSTTAGDRVSITCKASQNVGSAVVWYQQKPGRSPKLLIYSSSIRYTGVPDRFTGSGSGTDFTLTINSVQSEDLADYFCQQYNSFPLTFGAGTKLEIK |  | highly potent |  |  | sulfation is only required at position 14 |  |  |  |  | − | + | baboon |  |  |  |
| clone 329: anti-C5aR1 Site II antibody; VH SEQ ID NO: 492, VL SEQ ID NO: 552 (antibody, V domains shown) VH: QVQLQQSGAELTKPGASVKLSCKASGYTFTNYWMHWVKQRPGQGLEWIGYLNPSSGYTKYNQKFKDKATLTADKSSSTAYMQLNSLTYEDSAVYYCTRSGGDNYGNPYYFDRWGQGTTVTVSS VL: DVVMTQTPLSLTVSLGDQASISCRSSQSLVHSNGNTYLHWYLQKPGQSPKFLIYKVSNRFSGVPDRFSGSGSGTDFRLKISRVEAEDLGVYFCSQSTLVPLTFGAGTKLEIK | improved | inhibited in a dose-dependent fashion | inhibition of C5aR1 mediated Gα signaling |  |  |  |  |  |  | + | − |  | abolished mAb binding | reduced binding | bound to a cyclic ECL2 peptide |
